In patent publication US20250340630A1 (SICHUAN KELUN BIOTECH BIOPHARMACEUTICAL, published 2025):

Legend:
human Claudin18.2 [1] = molecular target: T1, human Claudin18.2 (human, UniProt P56856-2 1-261); assay: flow cytometry (IntelliCyt) on Ba/F3-Claudin18.2 cells
T1 construct: whole, on cells; Four-transmembrane protein, always presented on cells (transfected lines or NUGC-4 with endogenous expression); also called CLDN18.2
Source text: In order to evaluate the anti-Claudin18.2 humanized antibodies, codon optimized cDNAs of the heavy chains and the light chains of the candidate humanized antibodies from Example 6 were synthesized and ligated into pcDNA3.4 (by Nanjing Genscript Biotech Corporation). Expi293F cells (purchased from Thermo Incorporation) were co-transfected with pcDNA3.4 coding the heavy chain and light chain of each antibody. The antibodies were purified from the supernatant using protein A (MabSelect SuRe, GE). The affinity of the humanized antibodies to Claudin18.2 was determined using Ba/F3-Claudin18.2 cells which over-expressed human Claudin18.2. Ba/F3-Claudin18.2 cells (60000 in 10 ul buffer) were incubated with purified humanized antibodies on ice for 30 min, followed by washing with buffer (PBS+2% FBS) twice and addition of Alexa647-labeled goat-anti-human IgG Fc antibody (1:500 dilution). The cells were incubated on ice for another 30 min and analyzed by IntelliCyt.

human Claudin18.2 [2] = molecular target: T1, human Claudin18.2; assay: flow cytometry on Ba/F3-Claudin18.2 cells, chimeric antibody
Procedure: The affinity of the anti-Claudin18.2 chimeric antibodies to Ba/F3-Claudin18.2 cells were determined. […] The cells were then analyzed by FACS.

human Claudin18.2 [3] = molecular target: T1, human Claudin18.2; assay: cell-based or functional assay
human Claudin18.1 = molecular target: T2, human Claudin18.1 (human, UniProt P56856 1-261); assay: FACS titration on Ba/F3-Claudin 18.1 cells
T2 construct: whole, on cells; Presented on transfected cells; also called CLDN18.1
Procedure: (§1) The affinity of the candidates to Claudin18.2 was measured using FACS. […] Ba/F3-Claudin18.1 and Ba/F3-Claudin18.2 cells were incubated with the purified mouse antibodies at various concentrations on ice for 30 min and mouse IgG was used as negative control (Thermo Fisher, Cat: 31903), followed by washing with FACS buffer (PBS+2% FBS) twice.

human Claudin18.2 [4] = molecular target: T1, human Claudin18.2; assay: flow cytometry on Ba/F3-Claudin18.2 cells, purified mouse antibody
Procedure: as §1

Binder | Max MFI (human Claudin18.2 [1]) [MFI] | EC50 (human Claudin18.2 [2]) [nM] | Max MFI (human Claudin18.2 [2]) [MFI] | ADCC EC50, Ba/F3-Claudin18.2 target cells, NK-92MI_mCD16 effectors (human Claudin18.2 [3]) [µg/mL] | ADCC Max killing rate %, Ba/F3-Claudin18.2 target cells (human Claudin18.2 [3]) [%] | further results
chimeric antibody 1E9.2-hz00 (antibody, human IgG1, kappa, V domains shown, Mouse variable regions on human IgG1 / kappa constant regions; expressed in Expi293F; also called 1E9.2 chimeric antibody) VH: EVMLVESGGGLVKPGGSLKLSCAASGFSFSNSAMSWVRQTPEKRLEGVATISSGDSYTYYPDSVKGRFTISRDNAKNSLYLQMSSLRSEDTAVYYCARQGYGNALDYWGQGTSVTVSS VL: DIVMTQSPSSLTVTAGEKVTMSCKSSQSLLNSGNQKNYLTWYQQKPGQPPKLLIYWSSTRESGVPDRFTGSGSGTDFTLTISSVQAEDLAVYYCQNDYYYPLTFGAGTKLELKR | 1.12e+07 | 11 | 1.18e+07 | 0.049 | 59.8 | 
mouse antibody 1E9.2 (antibody, V domains shown, Purified from hybridoma) VH: EVMLVESGGGLVKPGGSLKLSCAASGFSFSNSAMSWVRQTPEKRLEGVATISSGDSYTYYPDSVKGRFTISRDNAKNSLYLQMSSLRSEDTAVYYCARQGYGNALDYWGQGTSVTVSS VL: DIVMTQSPSSLTVTAGEKVTMSCKSSQSLLNSGNQKNYLTWYQQKPGQPPKLLIYWSSTRESGVPDRFTGSGSGTDFTLTISSVQAEDLAVYYCQNDYYYPLTFGAGTKLELK |  |  |  |  |  | binding result (human Claudin18.1): no binding (tested: about 50 nM); EC50 (human Claudin18.2 [4]): 8.51 nM; Max MFI (human Claudin18.2 [4]): 5.08e+06 MFI
chimeric antibody 6B9.22-hz00 (antibody, human IgG1, kappa, V domains shown, Mouse variable regions on human IgG1 / kappa constant regions; expressed in Expi293F) VH: QVQLQQSGAELVKPGASVKMSCKAFGYTFTSYPIEWMKQNHGKSLEWIGNFHPYNDDTKYNEKFKGKAKLTVEKSSSTVYLELSRLTSDDSAVYYCARTYYGNSFAYWGQGTLVTVSS VL: DIVMTQSPSSLTVTAGEKVTMSCKSSQSLLNSGNQKNYLTWYQQKPGQPPKLLIYWASSRDSGVPHRFTGSGSGTDFTLTISSVQAEDLAFYYCQNDYFYPFTFGAGTKLELKR |  | 18.2 | 1.67e+07 |  |  | 
chimeric antibody 9C8.1-hz00 (antibody, human IgG1, kappa, V domains shown, Mouse variable regions on human IgG1 / kappa constant regions; expressed in Expi293F) VH: QVQLQQSGAELVRPGSSVKISCKASGYAFSNYWMNWVKQRPGQGLEWIGQIYPGDGDTNYNGKFKGKATLTTDKSSSTAYMQLSSLTSEDSAVYFCARLYYGNSFAYWGQGTLVTVSS VL: DIVMTQSPSSLTVTAGEKVTVSCKSSQSLLNSGNQKNYLTWYQQKPGQPPKLLIYWASTRESGVPDRFTGSGSGTDFTLTISSVQAADLAIYYCQNDYFYPFTFGGGTKLEIKR |  | 23.9 | 1.44e+07 |  |  | 
chimeric antibody 16A9.11-hz00 (antibody, human IgG1, kappa, V domains shown, Mouse variable regions on human IgG1 / kappa constant regions; expressed in Expi293F) VH: EVMLVESGGGLVKPGGSLKLSCAASGFSFSNSAMSWVRQTPEKRLEGVATISSGDSYTYYPDSVKGRFTISRDTAKNSLYLQMSSLRSEDTAVYYCTRQGYGNAMDYWGQGTSVTVSS VL: DIVMTQSPSSLTVTAGEKVTMSCKSSQSLLNSGNQKNYLTWYQQKPGQPPKLLIYWSSTRESGVPDRFTGSGSGTDFTLTISSVQAEDLAVYYCQNDYYYPLTFGAGTKLELKR |  | 10.5 | 1.24e+07 |  |  | 
chimeric antibody 19H11.6-hz00 (antibody, human IgG1, kappa, V domains shown, Mouse variable regions on human IgG1 / kappa constant regions; expressed in Expi293F) VH: EVMLVESGGGLVKPGGSLKLSCAASGFSFSNSAMSWVRQTPEKRLEGVATISSGDSFTYYPDTVKGRFTISRDNAKNSLYLQMSRLRSEDTAVYYCARQGYGNALDYWGQGTSVTVSS VL: DIVMTQSPSSLTVTAGEKVTMTCKSSQSLLNSGNQKNYLTWYQQKPGQPPKLLIYWSSTRESGVPDRFTGSGSGTDFTLTISSVQAEDLAVYYCQNDYYYPLTFGAGTKLELKR |  | 11.6 | 1.3e+07 |  |  | 
mouse antibody 16A9.11 (antibody, V domains shown, Purified from hybridoma) VH: EVMLVESGGGLVKPGGSLKLSCAASGFSFSNSAMSWVRQTPEKRLEGVATISSGDSYTYYPDSVKGRFTISRDTAKNSLYLQMSSLRSEDTAVYYCTRQGYGNAMDYWGQGTSVTVSS VL: DIVMTQSPSSLTVTAGEKVTMSCKSSQSLLNSGNQKNYLTWYQQKPGQPPKLLIYWSSTRESGVPDRFTGSGSGTDFTLTISSVQAEDLAVYYCQNDYYYPLTFGAGTKLELK |  |  |  |  |  | binding result (human Claudin18.1): no binding (tested: about 50 nM); EC50 (human Claudin18.2 [4]): 10.2 nM; Max MFI (human Claudin18.2 [4]): 5.82e+06 MFI
humanized antibody 1E9.2-hz12 (antibody, human IgG1, kappa, V domains shown, Human IgG1 / kappa constant regions) VH: EVQLVESGGGLVKPGGSLRLSCAASGFSFSNSAMSWVRQAPGKGLEWVSTISSGDSYTYYADSVKGRFTISRDNAKNSLYLQMNSLRAEDTAVYYCARQGYGNALDYWGQGTLVTVSS VL: DIVMTQSPDSLAVSLGERATINCKSSQSLLQSGNQKNYLTWYQQKPGQPPKLLIYWSSTRESGVPDRFSGSGSGTDFTLTISSLQAEDFAVYYCQNDYYYPLTFGGGTKVEIKR |  |  |  | 0.091 | 64.4 | 
humanized antibody 1E9.2-hz15 (antibody, human IgG1, kappa, V domains shown, Human IgG1 / kappa constant regions) VH: EVQLVESGGGLVKPGGSLRLSCAASGFSFSNSAMSWVRQAPGKGLEWVSTISSGDSYTYYADSVKGRFTISRDNAKNSLYLQMNSLRAEDTAVYYCARQGYGNALDYWGQGTLVTVSS VL: DIVMTQTPLSLPVTPGEPASISCKSSQSLLNSGNQKNYLTWYLQKPGQSPQLLIYWSSTRESGVPDRFSGSGSGTDFTLKISRVEAEDFGVYYCQNDYYYPLTFGGGTKVEIKR | 8.99e+06 |  |  | 0.08 | 66.2 | 
humanized antibody 1E9.2-hz14 (antibody, human IgG1, kappa, V domains shown, Human IgG1 / kappa constant regions) VH: EVQLVESGGGLVKPGGSLRLSCAASGFSFSNSAMSWVRQAPGKGLEWVSTISSGDSYTYYADSVKGRFTISRDNAKNSLYLQMNSLRAEDTAVYYCARQGYGNALDYWGQGTLVTVSS VL: DIVMTQSPDSLAVSLGERATINCKSSQSLLQSGNNKNYLTWYQQKPGQPPKLLIYWSSTRESGVPDRFSGSGSGTDFTLTISSLQAEDFAVYYCQNDYYYPLTFGGGTKVEIKR |  |  |  | 0.097 | 60.5 | 
humanized antibody 1E9.2-hz13 (antibody, human IgG1, kappa, V domains shown, Human IgG1 / kappa constant regions) VH: EVQLVESGGGLVKPGGSLRLSCAASGFSFSNSAMSWVRQAPGKGLEWVSTISSGDSYTYYADSVKGRFTISRDNAKNSLYLQMNSLRAEDTAVYYCARQGYGNALDYWGQGTLVTVSS VL: DIVMTQSPDSLAVSLGERATINCKSSQSLLQSGNQKNYLTWYQQKPGQPPKLLIYWSSTRESGVPDRFSGSGSGTDFTLTISSLQAEDVAVYYCQNDYYYPLTFGGGTKVEIKR |  |  |  | 0.068 | 63.8 | 
humanized antibody 1E9.2-hz41 (antibody, human IgG1, kappa, V domains shown, Human IgG1 / kappa constant regions) VH: EVQLVESGGGLVKPGGSLRLSCAASGFSFSNSAMSWVRQAPGKGLEGVATISSGDSYTYYPDSVKGRFTISRDNAKNSLYLQMNSLRAEDTAVYYCARQGYGNALDYWGQGTLVTVSS VL: DIVMTQSPDSLAVSLGERATINCKSSQSLLNSGNQKNYLTWYQQKPGQPPKLLIYWSSTRESGVPDRFSGSGSGTDFTLTISSLQAEDFAVYYCQNDYYYPLTFGGGTKVEIKR | 1.13e+07 |  |  | 0.048 | 55.4 | 
humanized antibody 1E9.2-hz21 (antibody, human IgG1, kappa, V domains shown, Human IgG1 / kappa constant regions) VH: EVQLVESGGGLVKPGGSLRLSCAASGFSFSNSAMSWVRQAPGKGLEGVSTISSGDSYTYYADSVKGRFTISRDNAKNSLYLQMNSLRAEDTAVYYCARQGYGNALDYWGQGTLVTVSS VL: DIVMTQSPDSLAVSLGERATINCKSSQSLLNSGNQKNYLTWYQQKPGQPPKLLIYWSSTRESGVPDRFSGSGSGTDFTLTISSLQAEDFAVYYCQNDYYYPLTFGGGTKVEIKR | 1.46e+07 |  |  |  |  | 
humanized antibody 1E9.2-hz17 (antibody, human IgG1, kappa, V domains shown, Human IgG1 / kappa constant regions) VH: EVQLVESGGGLVKPGGSLRLSCAASGFSFSNSAMSWVRQAPGKGLEWVSTISSGDSYTYYADSVKGRFTISRDNAKNSLYLQMNSLRAEDTAVYYCARQGYGNALDYWGQGTLVTVSS VL: DIVMTQTPLSLPVTPGEPASISCKSSQSLLQSGNGKNYLTWYLQKPGQSPQLLIYWSSTRESGVPDRFSGSGSGTDFTLKISRVEAEDFGVYYCQNDYYYPLTFGGGTKVEIKR | 5.9e+06 |  |  | 0.113 | 59.6 | 
humanized antibody 1E9.2-hz31 (antibody, human IgG1, kappa, V domains shown, Human IgG1 / kappa constant regions) VH: EVQLVESGGGLVKPGGSLRLSCAASGFSFSNSAMSWVRQAPGKGLEGVATISSGDSYTYYADSVKGRFTISRDNAKNSLYLQMNSLRAEDTAVYYCARQGYGNALDYWGQGTLVTVSS VL: DIVMTQSPDSLAVSLGERATINCKSSQSLLNSGNQKNYLTWYQQKPGQPPKLLIYWSSTRESGVPDRFSGSGSGTDFTLTISSLQAEDFAVYYCQNDYYYPLTFGGGTKVEIKR | 1.06e+07 |  |  |  |  | 
mouse antibody 19G10.14 (antibody, V domains shown, Purified from hybridoma) VH: QVQLKESGPGLVAPSQSLSITCTVSGFSFTSYGVHWVRQPPGKGLEWLGVIWAGGSTDYNAALMSRLSIRKDNSKSQVFLKMNSLQIADTAMYYCARDGHGKVGFDVWGAGTTVTVSS VL: DIVMTQSPSSLSVSAGEKVTMNCKSSQSLLNSGNQKNYLAWYQQKPGQPPKLLIYGASTRESGVPDRFTGGGSGTDFTLTISSVQAEDLAIYYCQNDHFYPFTFGSGTKLEIK |  |  |  |  |  | binding result (human Claudin18.1): no binding (tested: about 50 nM); EC50 (human Claudin18.2 [4]): 16.3 nM; Max MFI (human Claudin18.2 [4]): 3.5e+06 MFI
